Experimental data from IntAct's records for PubMed 35512704.

B1: Mothers against decapentaplegic homolog 4 (Homo sapiens), Q13485 (parent)
chain: MDNMSITNTPTSNDACLSIVHSLMCHRQGGESETFAKRAIESLVKKLKEKKDELDSLITAITTNGAHPSKCVTIQRTLDGRLQVAGRKGFPHVIYARLWRWPDLHKNELKHVKYCQYAFDLKCDSVCVNPYHYERVVSPGIDLSGLTLQSNAPSSMMVKDEYVHDFEGQPSLSTEGHSIQTIQHPPSNRASTETYSTPALLAPSESNATSTANFPNIPVASTSQPASILGGSHSEGLLQIASGPQPGQQQNGFTGQPATYHHNSTTTWTGSRTAPYTPNLPHHQNGHLQHHPPMPPHPGHYWPVHNELAFQPPISNHPAPEYWCSIAYFEMDVQVGETFKVPSSCPIVTVDGYVDPSGGDRFCLGQLSNVHRTEAIERARLHIGKGVQLECKGEGDVWVRCLSDHAVFVQSYYLDREAGRAPGDAVHKIYPSAYIKVFDLRQCHRQMQQQAATAQAAAAAQAAAVAGNIPGPGSVGGIAPAISLSAAAGIGVDDLRRLCILRMSFVKGWGPDYPRQSIKETPCWIEIHLHRALQLLDEVLHTMPIADPQPLD
partner: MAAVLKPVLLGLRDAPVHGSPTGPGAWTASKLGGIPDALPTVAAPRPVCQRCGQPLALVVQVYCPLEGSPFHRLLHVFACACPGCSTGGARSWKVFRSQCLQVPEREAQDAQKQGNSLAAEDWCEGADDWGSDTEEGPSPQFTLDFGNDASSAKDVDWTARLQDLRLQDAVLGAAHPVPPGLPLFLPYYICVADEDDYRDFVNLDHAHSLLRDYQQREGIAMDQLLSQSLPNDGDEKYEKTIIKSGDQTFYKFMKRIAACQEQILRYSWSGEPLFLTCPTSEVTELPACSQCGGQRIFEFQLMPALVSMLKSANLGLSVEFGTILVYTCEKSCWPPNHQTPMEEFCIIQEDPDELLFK
B2: Mothers against decapentaplegic homolog 4 (Homo sapiens), Q13485 (parent)
chain: B1 chain
partner: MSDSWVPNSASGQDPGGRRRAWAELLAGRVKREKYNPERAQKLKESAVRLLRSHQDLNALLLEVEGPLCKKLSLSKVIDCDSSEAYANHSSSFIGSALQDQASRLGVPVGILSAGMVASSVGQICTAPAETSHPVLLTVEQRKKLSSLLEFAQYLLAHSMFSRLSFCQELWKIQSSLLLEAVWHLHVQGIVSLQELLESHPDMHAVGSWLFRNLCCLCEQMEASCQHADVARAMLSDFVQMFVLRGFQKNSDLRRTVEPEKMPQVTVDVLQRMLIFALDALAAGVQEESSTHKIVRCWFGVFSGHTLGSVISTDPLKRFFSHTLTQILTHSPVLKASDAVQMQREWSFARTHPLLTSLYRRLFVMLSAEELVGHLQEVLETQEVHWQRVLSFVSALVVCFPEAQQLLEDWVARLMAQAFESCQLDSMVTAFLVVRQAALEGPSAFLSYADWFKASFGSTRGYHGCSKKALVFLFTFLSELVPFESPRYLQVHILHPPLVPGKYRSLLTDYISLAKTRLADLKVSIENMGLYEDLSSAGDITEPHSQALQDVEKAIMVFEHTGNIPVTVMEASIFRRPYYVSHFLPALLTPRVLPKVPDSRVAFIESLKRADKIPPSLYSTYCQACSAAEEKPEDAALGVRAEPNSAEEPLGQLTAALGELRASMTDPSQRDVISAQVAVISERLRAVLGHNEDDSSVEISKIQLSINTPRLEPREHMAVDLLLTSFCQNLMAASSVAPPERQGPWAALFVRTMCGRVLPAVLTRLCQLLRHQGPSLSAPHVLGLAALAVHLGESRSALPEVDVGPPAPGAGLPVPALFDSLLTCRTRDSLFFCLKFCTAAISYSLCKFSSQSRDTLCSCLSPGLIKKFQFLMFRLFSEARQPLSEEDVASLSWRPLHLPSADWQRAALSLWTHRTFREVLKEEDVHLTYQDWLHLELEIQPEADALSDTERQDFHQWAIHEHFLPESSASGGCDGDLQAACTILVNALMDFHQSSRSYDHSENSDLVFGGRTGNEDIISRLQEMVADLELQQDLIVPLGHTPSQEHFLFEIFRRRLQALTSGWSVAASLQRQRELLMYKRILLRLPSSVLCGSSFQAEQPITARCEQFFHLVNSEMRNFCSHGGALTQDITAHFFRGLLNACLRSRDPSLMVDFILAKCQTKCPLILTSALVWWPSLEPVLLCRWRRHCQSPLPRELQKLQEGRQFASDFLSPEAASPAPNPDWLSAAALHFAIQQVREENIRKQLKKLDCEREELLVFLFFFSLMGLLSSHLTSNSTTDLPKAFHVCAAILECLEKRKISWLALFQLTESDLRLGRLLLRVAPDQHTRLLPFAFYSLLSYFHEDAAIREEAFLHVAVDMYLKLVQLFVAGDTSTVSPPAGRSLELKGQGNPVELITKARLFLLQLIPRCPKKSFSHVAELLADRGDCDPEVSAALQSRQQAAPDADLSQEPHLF
B3: Mothers against decapentaplegic homolog 4 (Homo sapiens), Q13485 (parent)
chain: B1 chain
partner: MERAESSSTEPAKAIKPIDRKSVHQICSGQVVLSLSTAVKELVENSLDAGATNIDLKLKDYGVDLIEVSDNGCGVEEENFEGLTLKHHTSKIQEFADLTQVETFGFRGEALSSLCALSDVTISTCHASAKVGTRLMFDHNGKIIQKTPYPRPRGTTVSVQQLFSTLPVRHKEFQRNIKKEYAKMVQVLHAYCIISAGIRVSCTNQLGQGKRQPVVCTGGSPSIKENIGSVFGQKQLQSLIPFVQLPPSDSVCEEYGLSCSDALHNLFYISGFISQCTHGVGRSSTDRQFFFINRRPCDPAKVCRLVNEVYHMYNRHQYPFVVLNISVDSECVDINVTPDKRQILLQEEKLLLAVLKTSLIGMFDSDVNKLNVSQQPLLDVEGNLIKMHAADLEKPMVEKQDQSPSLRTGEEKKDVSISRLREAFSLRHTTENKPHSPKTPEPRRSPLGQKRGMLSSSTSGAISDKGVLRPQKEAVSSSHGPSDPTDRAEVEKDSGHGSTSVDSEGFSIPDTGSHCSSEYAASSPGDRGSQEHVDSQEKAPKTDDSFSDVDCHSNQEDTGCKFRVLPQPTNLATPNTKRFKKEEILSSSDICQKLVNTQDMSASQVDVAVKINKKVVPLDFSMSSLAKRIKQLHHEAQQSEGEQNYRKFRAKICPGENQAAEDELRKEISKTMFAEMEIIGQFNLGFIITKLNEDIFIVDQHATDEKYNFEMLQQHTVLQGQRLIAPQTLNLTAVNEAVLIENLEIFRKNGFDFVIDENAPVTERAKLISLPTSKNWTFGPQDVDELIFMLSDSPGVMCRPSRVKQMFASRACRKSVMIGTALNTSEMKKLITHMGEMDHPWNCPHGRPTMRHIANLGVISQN
B4: Mothers against decapentaplegic homolog 4 (Homo sapiens), Q13485 (parent)
chain: B1 chain
partner: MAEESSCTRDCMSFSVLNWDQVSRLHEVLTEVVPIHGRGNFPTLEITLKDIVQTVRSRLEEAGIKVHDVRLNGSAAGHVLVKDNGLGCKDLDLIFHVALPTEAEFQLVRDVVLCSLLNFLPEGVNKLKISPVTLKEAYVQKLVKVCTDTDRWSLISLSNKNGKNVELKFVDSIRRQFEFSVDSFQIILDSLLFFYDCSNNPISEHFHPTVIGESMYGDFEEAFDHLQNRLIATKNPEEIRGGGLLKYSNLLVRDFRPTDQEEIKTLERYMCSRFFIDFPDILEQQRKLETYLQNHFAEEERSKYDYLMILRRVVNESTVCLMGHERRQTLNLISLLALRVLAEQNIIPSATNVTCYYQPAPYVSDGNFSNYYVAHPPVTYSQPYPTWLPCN

Variants of: B1
Conditions: with pdd2l_human PDCD2L

Variant | effect of a mutation on the interaction
R361C | with no effect

Variants of: B2
Conditions: with fanca_human FANCA

Variant | effect of a mutation on the interaction
D351H | with no effect

Variants of: B2
Conditions: with fanca_human FANCA
Remark: another data set of the same source

Variant | effect of a mutation on the interaction
G386D | with no effect

Variants of: B2
Conditions: with fanca_human FANCA
Remark: another data set of the same source

Variant | effect of a mutation on the interaction
R361C | with no effect

Variants of: B2
Conditions: with fanca_human FANCA
Remark: another data set of the same source

Variant | effect of a mutation on the interaction
R361H | with no effect

Variants of: B3
Conditions: with pms2_human PMS2, P54278

Variant | effect of a mutation on the interaction
R361H | with no effect

Variants of: B3
Conditions: with pms2_human PMS2, P54278
Remark: another data set of the same source

Variant | effect of a mutation on the interaction
R361C | with no effect

Variants of: B3
Conditions: with pms2_human PMS2, P54278
Remark: another data set of the same source

Variant | effect of a mutation on the interaction
G386D | with no effect

Variants of: B3
Conditions: with pms2_human PMS2, P54278
Remark: another data set of the same source

Variant | effect of a mutation on the interaction
D351H | with no effect

Variants of: B4
Conditions: with tet5c_human TENT5C

Variant | effect of a mutation on the interaction
G386D | with no effect

Variants of: B4
Conditions: with tet5c_human TENT5C
Remark: another data set of the same source

Variant | effect of a mutation on the interaction
R361H | with no effect

Variants of: B4
Conditions: with tet5c_human TENT5C
Remark: another data set of the same source

Variant | effect of a mutation on the interaction
R361C | with no effect
